Biological target: T1, rat P2X4 receptor with a C-terminal hemagglutinin (HA) tag (rat, UniProt P51577 1-388)
T1 construct: P2X4 subunit, rat (Rattus norvegicus), GenBank U47031.1; UniProt P51577 is printed for the rat P2X4 subunit in the modelling methods; The subunit ran at 70 kDa on SDS-PAGE, which the authors put down to glycosylation; also called P2X4 subunit; source: tsA201 cells, transfected (pcDNA3.1, PEI); Triton X-100 solubilised MEMBRANE fraction; eluted from anti-HA agarose beads with HA peptide; not …
T1 sequence (looked up): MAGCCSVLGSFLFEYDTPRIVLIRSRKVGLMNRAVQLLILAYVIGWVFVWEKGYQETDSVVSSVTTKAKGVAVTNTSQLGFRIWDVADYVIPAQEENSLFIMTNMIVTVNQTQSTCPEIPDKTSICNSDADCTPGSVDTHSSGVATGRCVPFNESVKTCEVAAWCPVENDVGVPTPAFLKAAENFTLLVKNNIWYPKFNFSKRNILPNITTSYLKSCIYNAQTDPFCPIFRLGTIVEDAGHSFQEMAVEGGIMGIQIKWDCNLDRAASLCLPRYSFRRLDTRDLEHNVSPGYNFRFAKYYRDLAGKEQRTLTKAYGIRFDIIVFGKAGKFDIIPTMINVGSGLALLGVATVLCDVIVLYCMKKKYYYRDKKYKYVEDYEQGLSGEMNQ
Experiment: atomic force microscopy imaging; complexes co-purified by the HA tag from co-transfected tsA201 cells, adsorbed onto mica for 15 min, dried and imaged in intermittent contact mode; histograms of molecular volumes fitted by a double Gaussian; without ATP, or with 100 μM ATP for 30 min in solution before adsorption
Details: partners not purified

B1: human 5-HT3A receptor with a C-terminal MYC/His-6 epitope tag (receptor, UniProt P46098 24-478, looked up)
chain: RRSRNTTRPALLRLSDYLLTNYRKGVRPVRDWRKPTTVSIDVIVYAILNVDEKNQVLTTYIWYRQYWTDEFLQWNPEDFDNITKLSIPTDSIWVPDILINEFVDVGKSPNIPYVYIRHQGEVQNYKPLQVVTACSLDIYNFPFDVQNCSLTFTSWLHTIQDINISLWRLPEKVKSDRSVFMNQGEWELLGVLPYFREFSMESSNYYAEMKFYVVIRRRPLFYVVSLLLPSIFLMVMDIVGFYLPPNSGERVSFKITLLLGYSVFLIIVSDTLPATAIGTPLIGVYFVVCMALLVISLAETIFIVRLVHKQDLQQPVPAWLRHLVLERIAWLLCLREQSTSQRPPATSQATKTDDCSAMGNHCSHMGGPQDFEKSPRDRCSPPPPPREASLAVCGLLQELSSIRQFLEKRDEIREVARDWLRVGSVLDKLLFHIYLLAVLAYSITLVMLWSIWQYA
notes: 5-HT3A subunit, human (Homo sapiens), GenBank AK304630.1; UniProt P46098 is printed for the human 5-HT3A subunit in the modelling methods; The subunit ran at 55 kDa on SDS-PAGE; also called 5-HT3A subunit; 5-HT3A-MYC/His6; source: tsA201 cells, transfected (pcDNA3.1, PEI); Triton X-100 solubilised MEMBRANE fraction; eluted from HisPur Ni-NTA agarose beads with 200 mM imidazole; not shown: MYC, …
stoichiometry N: 1

Source: paper PMC7214622, “Function of P2X4 Receptors Is Directly Modulated by a 1:1 Stoichiometric Interaction With 5-HT3A Receptors” (Frontiers in Cellular Neuroscience, 2020)
